# Results as given in IntAct's records for PubMed 20876572.
# B1: Methylmalonic aciduria type A protein, mitochondrial (Homo sapiens), Q8IVH4 (parent)
# chain: MPMLLPHPHQHFLKGLLRAPFRCYHFIFHSSTHLGSGIPCAQPFNSLGLHCTKWMLLSDGLKRKLCVQTTLKDHTEGLSDKEQRFVDKLYTGLIQGQRACLAEAITLVESTHSRKKELAQVLLQKVLLYHREQEQSNKGKPLAFRVGLSGPPGAGKSTFIEYFGKMLTERGHKLSVLAVDPSSCTSGGSLLGDKTRMTELSRDMNAYIRPSPTRGTLGGVTRTTNEAILLCEGAGYDIILIETVGVGQSEFAVADMVDMFVLLLPPAGGDELQGIKRGIIEMADLVAVTKSDGDLIVPARRIQAEYVSALKLLRKRSQVWKPKVIRISARSGEGISEMWDKMKDFQDLMLASGELTAKRRKQQKVWMWNLIQESVLEHFRTHPTVREQIPLLEQKVLIGALSPGLAADFLLKAFKSRD
# partner: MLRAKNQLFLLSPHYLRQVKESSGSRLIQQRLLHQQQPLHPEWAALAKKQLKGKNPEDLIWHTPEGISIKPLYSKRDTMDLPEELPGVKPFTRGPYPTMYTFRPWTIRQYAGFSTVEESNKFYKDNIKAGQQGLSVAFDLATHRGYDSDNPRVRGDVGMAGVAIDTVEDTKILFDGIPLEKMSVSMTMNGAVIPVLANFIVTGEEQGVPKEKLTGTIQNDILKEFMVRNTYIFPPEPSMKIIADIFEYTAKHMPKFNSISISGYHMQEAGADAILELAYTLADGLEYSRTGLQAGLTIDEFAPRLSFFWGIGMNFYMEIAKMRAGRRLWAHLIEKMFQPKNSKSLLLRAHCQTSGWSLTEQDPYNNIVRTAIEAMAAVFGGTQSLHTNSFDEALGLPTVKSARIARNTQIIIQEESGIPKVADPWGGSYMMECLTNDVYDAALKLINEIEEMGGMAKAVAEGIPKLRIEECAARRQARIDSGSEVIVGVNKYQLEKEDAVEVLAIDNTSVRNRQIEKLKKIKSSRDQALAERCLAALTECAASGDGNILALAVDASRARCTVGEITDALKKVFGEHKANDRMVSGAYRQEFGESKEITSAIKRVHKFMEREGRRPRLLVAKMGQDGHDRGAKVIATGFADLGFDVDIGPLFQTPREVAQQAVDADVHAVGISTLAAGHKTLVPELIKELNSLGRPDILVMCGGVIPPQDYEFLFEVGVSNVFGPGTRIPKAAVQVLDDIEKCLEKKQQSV
# Variants of: B1
# Conditions: with muta_human MMUT
row,Variant,effect of a mutation on the interaction
1,MPMLLPHPHQHFLKGLLRAPFRCYHFIFHSSTHLGSGIPCAQPFNSLGLHCTKWMLLSDGLKRKLCVQTTLKDHTEGLSDKEQRFVDKLYTGLIQGQRACLAEAITLVESTHSRKKELAQVLLQKVLLYHREQEQSNKGKPLAFRVGLSGPPGAGKSTFIEYFGKMLTERGHKLSVLAVDPSSCTSGRSLLGDKTRMTELSRDMNAYIRPSPTRGTLGGVTRTTNEAILLCEGAGYDIILIETVGVGQSEFAVADMVDMFVLLLPPAGGDELQGIKRGIIEMADLVAVTKSDGDLIVPARRIQAEYVSALKLLRKRSQVWKPKVIRISARSGEGISEMWDKMKDFQDLMLASGELTAKRRKQQKVWMWNLIQESVLEHFRTHPTVREQIPLLEQKVLIGALSPGLAADFLLKAFKSRD [G188R],disrupting interaction strength
